Reference: the domain aggregation screens of Martell et al. (2025)

Experiment: soluble fraction after stress (log2 fold change); higher = more stays soluble; pooled small domains, quantitative proteomics
Conditions: stress: 75 degC
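Further: 20 min heating vs room temperature control held 20 min.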

Sequence	soluble fraction (log2)
HMGPSLDAVREQIRDLIAEEDKSAPYSDLSLVAELEKRGIHISRRTIAKYRGEMGIPNSDQRRYF	-0.0939
HMGPSSIVVYVSGAVKTPGVYTLAPGSRVDDAVRAAGGLSERAESAGTNLAAQLSDGEHVHVAAAGE	0.0915
HMGPTGGLTPHIAIADKRASEAIEFYKQAFGAVEQVRMPAEDGVRLMHAHLLVNGSSLMMHDDFPEYSGQ	0.133
HMGPTLSPAEKRVFEVIPYDAILQDMVIRAAELPPGEVLAALTTLELKGLIKRLPGNLVMRRAR	-0.294
HMGPVALGVTDGATYFSSVTITFRRGTAVLDGEPIASGHTVYKSGAHSLTLTAGGKTRTIAFTMDT	-4.04
HMGPVPLASAADMEKFYSHLQQVLDEVDFKDRTGSGHLMARLRRLFQRTVLDQNEINILRGILMAVQGRR	-3.03
HMGQGAASAPLRELGVDPVSEKQMVLKDGRFGPYVTDGETNASLRKGDEVETITDERASELLQMRRDAGPS	-0.139
HMGQISDDGALKKLASEVLAANPQALADWKAGKQQAVSFLVGQAMKASKGRGDAALLGELIRAALD	0.2
HMGQKASEVEKIFVELQQQIIRGDLPPGYRLVESQIAAQFGVSRTPARLAIERLATAGLVAHETNRGATVH	-0.823
HMGQKNEDESLAKFYVHKKGNQYGPYSLIQIREYLKNNSFSLDDLASWDGQSWKKISQIPNLN	0.12
HMGQLTDKQILLFSGKLAYEPTFASKYSKAGESYDDFIIRISGDLTDPKKIKEYSPYLKELGF	-0.35
HMGQNYTIVKGDSLWKIAQKQYGDGSQWKKIYDANKDAIESAAKKYGKKSSDSGKWIYPGVSLII	-0.112
HMGQVEVPDVVGMTQERAITTLTEAKLVAQIQLTPADVAKGLVAAQSPRAGLKIGEGSFVTIEVSTGPVI	-0.306
HMGQVFEGTFNRKANGKNSVTPAEGGEPVFIAERNSLHAMNGDLVKVSLLAKKKHQPREAQVIEILKRSD	0.128
HMGQVPPLTRRETEIARLVSRGLSNKEIASTLVISPRTAEGHVEHILDKLGFSSRTQIATWLNEQTRNGK	-0.14
HMGRDWKTDLLNLATARGWGDVSYEVTGEGPDHARVYTAVAIVANQKTGTGVGPSKKEAERLAAEQAYRML	-0.099
HMGRELSDLELSLLRILDDKIPLLIDEAADRLQLPVAQVLSAVTIMEIDGLIRREGMRKYLRTVEVEETK	-1.63
HMGRFAETVEHIVAAQLARRQGIPTMEQFASFFNVSRATFQRRLGEEGETLEQIKQRVRLRLALELLHP	-3.1
HMGRGAAKGPLKELGLDPVTGRPLVVKDGKFGMYVTDGETNAGLRRGDLVEQLTLDRGMELLAERRARADQ	0.201
HMGRKIDDPSSMTGAEKAAVILLALGDEQRQLWEMMDDEEIRVVSQAMVNLGNVTSGAVEKLIMEFVGSMS	-0.37
HMGRKPATTIPLQVRNAVLDLYRTKYYGANFQHYTELLHEHEGIRISTSSVAKILEAEYILSPK	-1.58
HMGRKPVSPEIVERVLQLAKSNPDWGYEHIAGTMRYLGYNVSATTIRHILEANGIVPDPERRL	-0.464
HMGRMSLDEAKAVILPIGEHKGHTMGEVLAIKPGLIDFYASQKFNSGKYPYLKEAAQVILENQG	-0.0288
HMGRRERKKLQSRRAIIEAAVTEFKEKGFREASVADIMTRADLGLGTFYNYFQSKEDILMSLLS	-0.0594
HMGRRRAAPQEPLRQFPASPVTGQPIKLLLGQYGPYVTDGTTNASLPKGSSPDELTFEQATQLLAERALRG	0.0333
HMGRSARVQQAVHQAVRALLEENDGERSALSVPLVAERAGVNSSTIYRRWGDLPRLLAAVASN	-0.686

Sequence	soluble fraction (log2)
HMGRTVKGVNFVGLRDAGDPVDLAEIYSKEGADELVFLDITATHEKRKTLLDLVTRVAERINIPFTVGGGI	0.056
HMGSALLEAGADDAGQRLDQWLAAKLGPSISRSRVQALIKQGAVLVGGKPAGEAKRKLVAGDVVSVALPEP	0.0393
HMGSDLVAWAQTRIGRHPEEAADVIAALIDRHGEARVRAASRSLLARKFAHASDLRTAIDAAIG	-0.365
HMGSEEMLGALGVVERATDDGDWWIAVHGEHWRARSAQALVPGDRVRVARIDGLTLTVTPIA	-0.632
HMGSEGVKVEDTIGMSEAEATATLGKSGFVVNKTESHDPYIKAGNVITQSPAAGSKAPKGTTVTLTISLGP	0.404
HMGSEISYSEFLNRVEQGQVAAVRLDGEQIFITGPTGEAYQTIQPRNTDVLPDLREAGVEIQAAPQ	0.22
HMGSEYPSNPLASRWAKGVRLYHDEWGYGVIQAARGSEPDDYVITVRFESGAEKSFLPKFQAHSLMIVKD	-1.21
HMGSGQVTLPDLEGKSMKEVARILSQLGLHLSPDGHGLAFKQSPAAGTRVPVGSTIKVSFQPL	-0.164
HMGSKKAIPYVSGMSETEAQNELEEAGFKVTSSFQYDDSVESGKVISTTPEAGTKAEKGSTVTMLVSQGSN	0.0103
HMGSLVQTAMQAVTKHIHDNAMRVGDTLPGEGHFAETLGVSRAVMREAFGALAALKLIDVGNGRKPRVGR	-1.33
HMGSNATIKYAIKGDESLVQVAQKFNVTVSELRSWNNISAFENAKTGQELVINVPASKYETYFALANT	0.403
HMGSNLSFDLSQIIASRYQEKAAELGLTAPSLARTDLSPQEQATAEVVARAIIADYYDQRVAPFNDLIPQ	-0.631
HMGSNRPLALGDVVRIEGSKTLGTILELNAKDAVVALGALKTTLPLSRIHHASSQESQRLKRQATQAPLR	-0.203
HMGSPKLVIKNGQVDYQVLKKEKLDLLELTSLLRGQNTFSIREIEYAIIEPNGVITVIKKPEYQSVVKGDL	-0.43
HMGSPVTAVMNRVLNETERQIVTLHVISGFKHREIAELLEKPVGTVLWTYNNALGKMRKAMQRE	-1.67
HMGSRRFGDSNHAAKLTEEQVVEIRELAAAGATTKFLAEMVGMHPNYVGLILRGLSWPEAGGPLRVA	0.126
HMGSVDMVYGDHKINSEHMDLSFKNQTAVLYDKVNYKSSLSMLSADKILVNFLNKYTKIEMNDENNNILIQ	0.176
HMGSVNDNVQKLTSQIGETTETGDTITPEDVELYKKMVDPLSTMAQKLEAAEILKLKGIIGSNGIIV	-0.211
HMGSWEDALKNWVDSALASGQKGILEQAVPKFERIMIETALTHTAGRRRDASLLLGWGRNTLTRKIKELGI	-0.383
HMGTAESIRLFLSSGLIKGVGEALAGRIVDTFGTDTFDIIENHPELLAGVKGISHRLAMSIYESFSQHIGV	-1.13
HMGTDIGADKAAQTALADAGLSSSQVTGLRTKQDWDDGQLRYEVEFRAGGVEYDYELAADGTILKADRDT	0.17
HMGTEITEQRAKEIALENAKVAESDVTAMRVKKEMDDGVWRYDVEFYVQNKEYDYEINAMDGTILSVDYD	-0.00128
HMGTESFGARIRKIREARDWTPAALAEATGQTPEFVARVERDEVAPPVAFLLRLAAALGVDPSTF	-0.557
HMGTGADKNSWTIGDKVKHRKWGTGTVVKVTGAGEDAELDIAFKSEGIKRLLAAFAPIEKVK	-0.165
HMGTHDAGTRFFDNLDSLLQNRDATRADVLAVYLLAVSLGFRGKHRSVSSAPQIAHYRNQAYVTLFQ	0.737
HMGTIEQAFKGKAPGSAHLYDRARAVLAGGVTHDTRIHAPFPIMVQRALGARKWDVDGNEYIDY	0.064

Sequence	soluble fraction (log2)
HMGTMKGFVDGSSVHLRSGPSLSESIRAKVVKGQTLYITERRGDWYRATVHGGGEGWIHTSLVKLAG	-1.68
HMGTPLYLLLAAEVRDRIATEQLAPHTAVPSERELAELHGVSRMTARQALALLESEGLVYRNPPRGTFVAE	-1.15
HMGTQIKSPMPGTILDVRVNVGDTVKEGDILMILEAMKMENEILAPVSGKVAAIQVSKGTAVNSGDLLAVL	-0.0689
HMGTRHPLPYAYARANTVLLEDDGDRLVLWAPENVSLTALGEVLRRFDVDALERESSSTLANRIAVAYAG	-0.774
HMGTTLTKIPGIGENRARLLLRHFGSLRAVREADADALAAVKGMTRPAAEAIVRYFEQQDAEGRRD	0.282
HMGTTTPPATRKGKVTSSFLNVRSGPSTANAKVAELKQNAVVTIYETSSNGWHRIGVNQWVIGTNIQE	-1.2
HMGTVSSGSSSTDTPFSLGEIVRHKVFGEGVVLSIEGQGDASRIQINFNTAGTKWLVTAYADLEK	-1.09
HMGTVVKRNALVHAWTEFNGGRASTKLLALGPGKVGEWIELENPQSGRKLRGEVQVDGSVRLG	0.0593
HMGTWKKIGTMTATVNDLYVRETPNGYIMGFINKGTVVEVDGKTTGKWTHAKVEGIGVGWIWTGYLDK	-3.17
HMGTYYTEIIAQLKKEIANGTWKLGERLPGELALAKQFNVSRSSIREALKALAYAGIVESKPGRGTFLLHV	-1.5
HMGVAAEDPDEAEKGAHSLKSSAANVGAEVVRGLAGEIESAASSGDVEAVRTILPGLEDAYSQAITDLET	0.266
HMGVDMGPAKYVGQKALTATEMRPAGKIQIGQTVFDAVSVGPFIGARKAVKVIKYENAQLYVEPE	-0.415
HMGVEVEVPNVKGKLVADAEYELGLAQLTPVRTDSAYNRNLPPGTVLEQLPASGSHVKEGREIYLTINST	0.284
HMGVGERIKARRKEIGLSAEQVAKELGVSPATVYRYESNDIMNMRIDKLEPIAKALHTTPAYLMGWE	-0.0856
HMGVGVKSTEVDYQRTSSGSDIPTDDAAWTKTIPAVKVNTFLWTRTKINYTDGTSAIFYSVGY	-3.05
HMGVGVPVTLLLEKLGEDTLSAQQIMERLGLKSRASFRKVYLVPALEQKLIEMEFPDKPNSSKQRYRR	-0.859
HMGVISRVITFWQNGFTVDDGPLRAFDDPANMAFMESIGRGEAPAELAPKTRTQRVNINLVQRHEPYSAPK	-0.147
HMGVITVRPPIVVRDFAIALNLKPFQVIGNLMELNKVVSVSSVIEEADARKVAERHGYTLEIRH	-1.67
HMGVMNEYEELRDRYLTGQIWKIGDLVEAKGIEGKIIQRGTNYITFNDSQGKVHKAWLHEIKV	-0.00315
HMGVNNDIIKHRKLEFMIEMLPDTFTRKEANEIGEGLGISLATLTRYLSSDAFERTGHGRYRKKD	-1.35
HMGVPTEQEIGKRILAWRKLRGMTLQQLADKAGVGLTTIHNLETGLWYAKMPTYLYIAEALGVSLDALIYG	-1.76
HMGVPVTAPMPGKVLKVTVSVGAAVKNGDLVLVLEAMKMENEIFATANGVVKEIRSREGDTVNSGDVMMVI	-2.19
HMGVRPAALGFQKVRIEPQVGTFREASGDVITPRGLIHAEWKRDEENALHLHYTLPDGVAYA	-0.0752
HMGVSDDMARGVVRARQFLSDFAAVPLDRMTPAEAVARARQLKSELETDAKHSPWLLDVLSNA	-0.116
